Reference: paper PMC12612594, “Nuclear Magnetic Resonance‐based fragment screen of the E3 ligase Fem‐1 homolog B” (Protein Science : A Publication of the Protein Society, 2025)

What was measured:
[1] = stability of construct at room temperature; assay type: physicochemical
Source text: Two FEM1B constructs (FEM1B‐1 and FEM1B‐2) were designed to remove free cysteines on the exterior of the protein to prevent disulfide bond formation and prevent aggregation. FEM1B‐3 to FEM1B‐11 were designed to modify hydrophobic residues on the protein surface and reduce the predicted pI away from the pH needed for the experiment. To accomplish this, residues such as Leu, Ile, Val, or Arg were mutated to negatively charged residues (Asp or Glu) to shift the pI to be more acidic. Hydrophobic residues on the surface of the protein were chosen for mutation to also reduce solvent‐exposed hydrophobic patches that may be contributing to the aggregation (Figure S1, Supporting Information).

[2] = thermal shift assay of FEM1B constructs; assay type: physicochemical; conditions: average of three replicates
Description: The substrate binding domain of FEM1B (residues 1–356, ~42 kDa molecular weight) was prepared for NMR‐based screening. However, this construct (FEM1B WT) was prone to aggregation and was not suitable for the NMR experiments. […] To reduce the potential for aggregation, we prepared several mutants of FEM1B constructs and evaluated their stability using a thermal shift assay (Table 1).

B1: FEM1B‐11: FEM1B construct, mutations L4E, L18E, A21E, L25S, Y84A, I270N, L281E, R321D (protein, UniProt Q9UK73 1-627, looked up, variant L4E L18E A21E L25S Y84A I270N L281E R321D)
Protein fem-1 homolog B: MEGEAGYVYKAASEGKVETLEALLSNRSESDIRYLLGYVSQQGGQRSTPLIIAARNGHAKVVRLLLEHYRVQTQQTGTVRFDGAVIDGATALWCAAGAGHFEVVKLLVSHGANVNHTTVTNSTPLRAACFDGRLDIVKYLVENNANISIANKYDNTCLMIAAYKGHTDVVRYLLEQRADPNAKAHCGATALHFAAEAGHIDIVKELIKWRAAIVVNGHGMTPLKVAAESCKADVVELLLSHADCDRRSRIEALELLGASFANDRENYDINKTYHYLYLAMEERFQDGDNILEKEVLPPIHAYGNRTECRNPQELESIRQDDDALHMEGLIVRERILGADNIDVSHPIIYRGAVYADNMEFEQCIKLWLHALHLRQKGNRNTHKDLLRFAQVFSQMIHLNETVKAPDIECVLRCSVLEIEQSMNRVKNISDADVHNAMDNYECNLYTFLYLVCISTKTQCSEEDQCKINKQIYNLIHLDPRTREGFTLLHLAVNSNTPVDDFHTNDVCSFPNALVTKLLLDCGAEVNAVDNEGNSALHIIVQYNRPISDFLTLHSIIISLVEAGAHTDMTNKQNKTPLDKSTTGVSEILLKTQMKMSLKCLAARAVRANDINYQDQIPRTLEEFVGFH
stable at room temperature [1]: over 24 h | Tm ± SD [2]: 48.6 ± 1.7 °C
